Measurements from the supplement of paper PMC9112550, “Optimization of the antimicrobial peptide Bac7 by deep mutational scanning” (BMC Biology, 2022).

System: Escherichia coli TOP10
Assay: shrunken log2 fold change of peptide-encoding DNA abundance (4.5 h post-induction vs induction); higher = less antimicrobial activity (less host growth inhibition)
Conditions: time post-induction: 4.5 h; library: site-saturation at positions 5, 18, 19, 20
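Further: peptides expressed intracellularly from a pBAD plasmid library in pooled LB shake-flask culture, induced with 0.3% L-arabinose, DNA abundance read by NGS, three biological replicates, DESeq2 with apeglm shrinkage.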

Sequence | shrunken log2 fold change
RRIRPRPPRLPRPRPRPSWIPRP | -0.179
RRIRCRPPRLPRPRPRPEDCPRP | 0.173
RRIRIRPPRLPRPRPRPFSYPRP | 3.51
RRIRGRPPRLPRPRPRPILAPRP | 0.492
RRIRHRPPRLPRPRPRPWKGPRP | -0.0165
RRIRSRPPRLPRPRPRPCKWPRP | -0.053
RRIRCRPPRLPRPRPRPKSPPRP | -0.1
RRIRHRPPRLPRPRPRPAVSPRP | -0.378
RRIRMRPPRLPRPRPRPDKYPRP | -0.212
RRIRGRPPRLPRPRPRPNYLPRP | -0.304
RRIRQRPPRLPRPRPRPVIAPRP | 0.248
RRIRVRPPRLPRPRPRPTFIPRP | -0.166
RRIRTRPPRLPRPRPRPMTTPRP | 0.000642
RRIRWRPPRLPRPRPRPRGLPRP | 0.698
RRIRFRPPRLPRPRPRPVCQPRP | 0.109
RRIRARPPRLPRPRPRPPDRPRP | 0.853
RRIRDRPPRLPRPRPRPRPVPRP | 0.466
RRIRGRPPRLPRPRPRPSIIPRP | 0.211
RRIRKRPPRLPRPRPRPLRVPRP | 1.04
RRIRSRPPRLPRPRPRPSSLPRP | -0.255
RRIRNRPPRLPRPRPRPMNAPRP | -0.281
RRIRIRPPRLPRPRPRPKYNPRP | -1.01
RRIRLRPPRLPRPRPRPQAAPRP | 0.0357
RRIRNRPPRLPRPRPRPFNTPRP | -0.765
RRIRGRPPRLPRPRPRPCGIPRP | 0.206

Sequence | shrunken log2 fold change
RRIRIRPPRLPRPRPRPIENPRP | -0.223
RRIRARPPRLPRPRPRPIPFPRP | 0.00602
RRIRERPPRLPRPRPRPIPEPRP | -0.882
RRIRSRPPRLPRPRPRPTKRPRP | 0.294
RRIRARPPRLPRPRPRPLTCPRP | -0.248
RRIRKRPPRLPRPRPRPGNFPRP | -0.373
RRIRIRPPRLPRPRPRPQRRPRP | 0.19
RRIRVRPPRLPRPRPRPMLAPRP | 0.446
RRIRTRPPRLPRPRPRPMAEPRP | 0.117
RRIRRRPPRLPRPRPRPNDLPRP | -0.0791
RRIRQRPPRLPRPRPRPGIPPRP | -0.0269
RRIRFRPPRLPRPRPRPGNQPRP | -0.00933
RRIRSRPPRLPRPRPRPAAEPRP | 0.466
RRIRCRPPRLPRPRPRPIASPRP | -0.0344
RRIRDRPPRLPRPRPRPKCGPRP | 0.00846
RRIRHRPPRLPRPRPRPEGAPRP | 0.686
RRIRARPPRLPRPRPRPKPWPRP | 0.823
RRIRIRPPRLPRPRPRPFINPRP | -0.365
RRIRPRPPRLPRPRPRPVSYPRP | -0.245
RRIRQRPPRLPRPRPRPRFKPRP | -0.128
RRIRQRPPRLPRPRPRPQVFPRP | 0.131
RRIRCRPPRLPRPRPRPHLHPRP | -0.626
RRIRVRPPRLPRPRPRPISYPRP | -0.158
RRIRMRPPRLPRPRPRPDSFPRP | -0.0586
RRIRDRPPRLPRPRPRPPFTPRP | 1.76

Sequence | shrunken log2 fold change
RRIRERPPRLPRPRPRPHTWPRP | -0.33
RRIRGRPPRLPRPRPRPPYHPRP | 0.0679
RRIRMRPPRLPRPRPRPCAMPRP | 0.424
RRIRERPPRLPRPRPRPWCNPRP | -0.112
RRIRWRPPRLPRPRPRPCFCPRP | 0.126
RRIRFRPPRLPRPRPRPCSNPRP | -0.0316
RRIRVRPPRLPRPRPRPASQPRP | 0.128
RRIRPRPPRLPRPRPRPQYHPRP | -0.68
RRIRRRPPRLPRPRPRPPKMPRP | 0.286
RRIRSRPPRLPRPRPRPGCDPRP | 0.332
RRIRHRPPRLPRPRPRPMFWPRP | 0.0114
RRIRHRPPRLPRPRPRPTATPRP | 0.39
RRIRTRPPRLPRPRPRPYIEPRP | -1.14
RRIRTRPPRLPRPRPRPPNIPRP | -0.355
RRIRQRPPRLPRPRPRPDDNPRP | 0.0317
RRIRRRPPRLPRPRPRPLRFPRP | 0.836
RRIRKRPPRLPRPRPRPETGPRP | 0.226
RRIRYRPPRLPRPRPRPDTQPRP | -0.00672
RRIRARPPRLPRPRPRPCWVPRP | 0.237
RRIRMRPPRLPRPRPRPMFGPRP | 0.0113
RRIRIRPPRLPRPRPRPKPFPRP | -0.00302
RRIRRRPPRLPRPRPRPDIQPRP | 0.0298
RRIRMRPPRLPRPRPRPCIAPRP | 0.099
RRIRWRPPRLPRPRPRPSYGPRP | -0.503
RRIRSRPPRLPRPRPRPPHQPRP | 0.27

Sequence | shrunken log2 fold change
RRIRARPPRLPRPRPRPSMNPRP | -0.032
RRIRCRPPRLPRPRPRPYVQPRP | -0.113
RRIRIRPPRLPRPRPRPCKNPRP | -0.299
RRIRGRPPRLPRPRPRPLNSPRP | 0.181
RRIRERPPRLPRPRPRPLCNPRP | -0.342
RRIRQRPPRLPRPRPRPRNGPRP | -0.0342
RRIRDRPPRLPRPRPRPEASPRP | 0.447
RRIRRRPPRLPRPRPRPSCPPRP | 0.941
RRIRARPPRLPRPRPRPLHHPRP | -0.0724
RRIRMRPPRLPRPRPRPDQPPRP | -0.0102
RRIRERPPRLPRPRPRPQQCPRP | -0.0909
RRIRNRPPRLPRPRPRPDVVPRP | -0.0975
RRIRTRPPRLPRPRPRPPQFPRP | 0.11
RRIRCRPPRLPRPRPRPIEEPRP | 0.008
RRIRVRPPRLPRPRPRPKYAPRP | -0.236
RRIRVRPPRLPRPRPRPMIFPRP | -0.213
RRIRKRPPRLPRPRPRPEVNPRP | 3.37
RRIRSRPPRLPRPRPRPNCIPRP | -0.416
RRIRRRPPRLPRPRPRPKKLPRP | 0.166
RRIRARPPRLPRPRPRPWKGPRP | 0.142
RRIRCRPPRLPRPRPRPGWCPRP | -0.0717
RRIRARPPRLPRPRPRPRNFPRP | -0.0153
RRIRARPPRLPRPRPRPNKTPRP | -0.105
RRIRRRPPRLPRPRPRPNRYPRP | -0.365
RRIRQRPPRLPRPRPRPAHAPRP | 0.0691

Sequence | shrunken log2 fold change
RRIRSRPPRLPRPRPRPMLFPRP | -0.196
RRIRQRPPRLPRPRPRPNKWPRP | -0.0433
RRIRHRPPRLPRPRPRPSQKPRP | -0.0338
RRIRERPPRLPRPRPRPMYVPRP | -0.0843
RRIRKRPPRLPRPRPRPSISPRP | 0.146
RRIRYRPPRLPRPRPRPYYLPRP | -0.31
RRIRWRPPRLPRPRPRPAVMPRP | 0.0971
RRIRSRPPRLPRPRPRPNPLPRP | 0.182
RRIRDRPPRLPRPRPRPMYEPRP | 0.183
RRIRMRPPRLPRPRPRPNMYPRP | 0.0412
RRIRLRPPRLPRPRPRPHHGPRP | -0.0757
RRIRYRPPRLPRPRPRPTCYPRP | -0.582
RRIRYRPPRLPRPRPRPGATPRP | 0.128
RRIRKRPPRLPRPRPRPFSDPRP | 0.0546
RRIRVRPPRLPRPRPRPEPYPRP | -0.2
RRIRARPPRLPRPRPRPAEVPRP | 0.129
RRIRTRPPRLPRPRPRPVKAPRP | 0.0375
RRIRWRPPRLPRPRPRPGQFPRP | 0.061
RRIRLRPPRLPRPRPRPKLWPRP | 0.296
RRIRFRPPRLPRPRPRPHSRPRP | -0.112
RRIRPRPPRLPRPRPRPDAVPRP | 0.325
RRIRSRPPRLPRPRPRPIIAPRP | -0.0683
RRIRVRPPRLPRPRPRPPYFPRP | 0.0499
RRIRQRPPRLPRPRPRPSAFPRP | -0.247
RRIRARPPRLPRPRPRPHSYPRP | 0.0128

Sequence | shrunken log2 fold change
RRIRGRPPRLPRPRPRPWRLPRP | -0.0196
RRIRFRPPRLPRPRPRPMVVPRP | -0.0152
RRIRERPPRLPRPRPRPSQKPRP | 0.0497
RRIRYRPPRLPRPRPRPVSLPRP | -0.267
RRIRKRPPRLPRPRPRPWFAPRP | 0.171
RRIRHRPPRLPRPRPRPEHMPRP | -0.177
RRIRFRPPRLPRPRPRPFWPPRP | 0.234
RRIRFRPPRLPRPRPRPMRVPRP | 0.973
RRIRPRPPRLPRPRPRPGMTPRP | 0.0694
RRIRARPPRLPRPRPRPKQTPRP | 0.453
RRIRVRPPRLPRPRPRPSPPPRP | -0.0761
RRIRQRPPRLPRPRPRPKACPRP | 0.0193
RRIRSRPPRLPRPRPRPFKQPRP | -0.468
RRIRCRPPRLPRPRPRPIGVPRP | 0.0129
RRIRYRPPRLPRPRPRPWPKPRP | 0.203
RRIRWRPPRLPRPRPRPNDTPRP | -0.268
RRIRCRPPRLPRPRPRPYTAPRP | -0.595
RRIRRRPPRLPRPRPRPNIDPRP | -0.0882
RRIRPRPPRLPRPRPRPRQRPRP | 0.382
RRIRERPPRLPRPRPRPMMNPRP | -0.122
RRIRPRPPRLPRPRPRPATYPRP | -0.46
RRIRLRPPRLPRPRPRPMTCPRP | -0.252
RRIRMRPPRLPRPRPRPHRSPRP | -0.0246
RRIRFRPPRLPRPRPRPWFTPRP | -0.574
RRIRVRPPRLPRPRPRPYRAPRP | -0.201
